T1: Human BMP9 (human, UniProt Q9UK05 320-429)
T1 sequence (looked up): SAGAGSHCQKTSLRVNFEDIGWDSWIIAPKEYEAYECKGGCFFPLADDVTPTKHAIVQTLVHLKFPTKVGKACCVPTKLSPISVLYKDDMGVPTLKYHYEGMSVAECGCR

T2: GDNF (UniProt P39905 78-211)
T2 sequence (looked up): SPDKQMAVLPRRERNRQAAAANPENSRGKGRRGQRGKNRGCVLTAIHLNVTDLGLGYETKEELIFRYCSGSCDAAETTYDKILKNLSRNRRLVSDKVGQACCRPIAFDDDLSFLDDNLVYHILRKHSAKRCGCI

T3: Human Activin B (human, UniProt P09529 293-407)
T3 construct: Also used for the Activin B ligand of the ActRIIB/SMAD reporter assay, where the species is not restated
T3 sequence (looked up): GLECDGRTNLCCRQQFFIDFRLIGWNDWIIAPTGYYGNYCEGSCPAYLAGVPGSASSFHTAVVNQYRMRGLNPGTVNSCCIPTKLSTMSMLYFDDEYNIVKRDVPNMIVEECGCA

T4: GDF10 (UniProt P55107 369-478)
T4 sequence (looked up): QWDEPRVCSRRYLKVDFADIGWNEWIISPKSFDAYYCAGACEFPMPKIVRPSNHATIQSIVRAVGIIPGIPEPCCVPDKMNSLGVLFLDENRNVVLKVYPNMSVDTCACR

T5: Human BMP10 (human, UniProt O95393 317-424)
T5 sequence (looked up): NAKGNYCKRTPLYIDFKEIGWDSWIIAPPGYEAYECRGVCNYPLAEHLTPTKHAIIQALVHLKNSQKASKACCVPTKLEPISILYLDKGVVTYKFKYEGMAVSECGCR

T6: GDF15 (Homo sapiens (Human), UniProt Q99988 30-308)
T6 sequence: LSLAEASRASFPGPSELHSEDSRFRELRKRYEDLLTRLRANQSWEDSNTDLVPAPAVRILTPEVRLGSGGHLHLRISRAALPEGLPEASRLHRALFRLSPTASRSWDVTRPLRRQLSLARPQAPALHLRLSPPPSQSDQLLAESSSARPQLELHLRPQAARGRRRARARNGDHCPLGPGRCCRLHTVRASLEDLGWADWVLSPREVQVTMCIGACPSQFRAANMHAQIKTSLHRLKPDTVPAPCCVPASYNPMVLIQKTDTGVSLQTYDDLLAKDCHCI

T7: Mouse GDF15 Fc (mouse, UniProt Q9Z0J7 189-303, limits assumed)
T7 construct: also called mouse GDF15Fc fusion
T7 sequence (looked up): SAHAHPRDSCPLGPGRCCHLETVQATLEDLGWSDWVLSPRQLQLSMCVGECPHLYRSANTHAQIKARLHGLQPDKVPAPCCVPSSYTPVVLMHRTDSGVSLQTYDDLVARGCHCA

T8: Cyno GDF15 Fc (cyno, UniProt G7PWZ3 193-308)
T8 construct: also called cyno GDF15-Fc fusion
T8 sequence: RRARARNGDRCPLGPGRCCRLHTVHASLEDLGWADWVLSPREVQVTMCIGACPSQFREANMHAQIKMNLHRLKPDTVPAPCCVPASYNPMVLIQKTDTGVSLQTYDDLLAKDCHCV

T9: Rat GDF-15 Fc (rat, UniProt Q9Z0J6 189-303, limits assumed)
T9 sequence (looked up): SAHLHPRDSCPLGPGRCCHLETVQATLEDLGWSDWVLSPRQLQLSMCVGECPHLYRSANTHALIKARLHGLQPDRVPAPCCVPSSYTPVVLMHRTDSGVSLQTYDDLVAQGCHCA

T10: Human Activin A Fc (human, UniProt P08476 311-426)
T10 sequence (looked up): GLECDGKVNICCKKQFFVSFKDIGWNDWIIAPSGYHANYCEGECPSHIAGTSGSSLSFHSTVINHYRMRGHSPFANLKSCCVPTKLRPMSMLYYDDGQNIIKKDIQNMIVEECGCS

B1: Clone Q IgG (antibody, V domains shown)
VH: QVQLQESGPGLVKPSQTLSLTCTVSGGSISSGGIYWTWIRQHPGKGLEWIGAIAYSGSTYYNPSLKSRVTISVDTSKNQFSLKLSSVTAADTAVYYCARGIEYQHFDYWGQGTLVTVSS
VL: not shown
notes: IgG format
B2: Clone R IgG (antibody, V domains shown)
VH: QVQLQESGPGLVKPSQTLSLTCTVSGGSISSGGIYWTWIRQHPGKGLEWIGAIAYSGSTYYNPSLESRVTISVDTSKNQFSLKLSSVTAADTAVYYCARGIEYQHFDYWGQGTLVTVSS
VL: not shown
notes: IgG format
B3: Clone E IgG (antibody, V domains shown)
VH: QVQLVQSGAEVKKPGASVKVSCKASGYTFTSYGINWVRQAPGQGLEWMGWITAYSGDTNYAQKLQGRVTMTTDTSTSTAYMELRSLRSDDTAVYYCARGPGQYADVDVWGQGTMVTVSS
VL: DIQMTQSPSSVSASVGDRVTITCRASQGISSWLAWYQQKPGKAPKLLIYAASSLQSGVPSRFSGSGSGTDFTLTISSLQPEDFATYYCQQANSFPITFGGGTKVEIKR
notes: IgG format
B4: Clone I IgG (antibody, V domains shown)
VH: QVQLVQSGAEVKKPGASVKVSCKASGYTFTDEGINWVRQAPGQGLEWMGWITAYSGDTVYAQKLQGRVTMTTDTSTSTAYMELRSLRSDDTAVYYCARGPGQYADVDVWGQGTMVTVSS
VL: DIQMTQSPSSVSASVGDRVTITCRASQGISSWLAWYQQKPGKAPKLLIYAASSLQSGVPSRFSGSGSGTDFTLTISSLQPEDFATYYCQQANSFPITFGGGTKVEIKR
notes: IgG format
B5: Clone L IgG (antibody, V domains shown)
VH: QVQLVQSGAEVKKPGASVKVSCKASGYTFASYDIIWVRQAPGQGLEWMGWISALSGDTVYAQKLQGRVTMTTDTSTSTAYMELRSLRSDDTAVYYCARTRHDTSGIRFDYWGQGTLVTVSS
VL: DIQMTQSPSSVSASVGDRVTITCRASQGIDSWLAWYQQKPGKAPKLLIYAASSLQSGVPSRFSGSGSGTDFTLTISSLQPEDFATYYCQQVHSFPITFGGGTKVEIKR
notes: IgG format
B6: Clone M IgG (antibody, V domains shown)
VH: QVQLVQSGAEVKKPGASVKVSCKASGYTFDSYGINWVRQAPGQGLEWMGWISAYSGDTAYAQELQGRVTMTTDTSTSTAYMELRSLRSDDTAVYYCVRDTQYGGSPYWGQGTLVTVSS
VL: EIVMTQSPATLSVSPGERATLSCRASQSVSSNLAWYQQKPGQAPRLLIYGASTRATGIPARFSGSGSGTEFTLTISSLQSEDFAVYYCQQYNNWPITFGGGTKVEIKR
notes: IgG format
B7: Clone N IgG (antibody, V domains shown)
VH: QVQLVQSGAEVKKPGASVKVSCKASGYTFTDYGIFWVRQAPGQGLEWMGWITAYSGDTHYAQKLQGRVTMTTDTSTSTAYMELRSLRSDDTAVYYCVRDTQYGGSPYWGQGTLVTVSS
VL: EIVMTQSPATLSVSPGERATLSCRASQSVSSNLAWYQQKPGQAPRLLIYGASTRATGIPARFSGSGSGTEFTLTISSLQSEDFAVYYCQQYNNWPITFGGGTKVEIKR
notes: IgG format
B8: Clone O IgG (antibody, V domains shown)
VH: QVQLVQSGAEVKKPGATVKVSCKASGYTFDSLGMSWVRQAPGQGLEWMGYISTYSGDTVYAQKLQGRVTMTTDTSTSTAYMELRSLRSDDTAVYYCARESGQQVSALDPWGQGTLVTVSS
VL: DIQMTQSPSSVSASVGDRVTITCRASQGISRWLAWYQQKPGKAPKLLIYAASSLQSGVPSRFSGSGSGTDFTLTISSLQPEDFATYYCQQGASFPLTFGGGTKVEIKR
notes: IgG format

Columns and labels:
[1] = biological target: T1, Human BMP9; assay: Octet BLI, IgG on tip, avid; P.F. = binder with poor fit
[2] = biological target: GDF8 (UniProt O14793 267-375); assay: Octet BLI, IgG on tip, avid
[3] = biological target: T11, GDF11 (UniProt O95390 299-407); assay: Octet BLI, IgG on tip, avid
T11 construct: Also the GDF-11 ligand of the ActRIIB/SMAD reporter assay
T11 sequence (O95390 299-407 limits assumed): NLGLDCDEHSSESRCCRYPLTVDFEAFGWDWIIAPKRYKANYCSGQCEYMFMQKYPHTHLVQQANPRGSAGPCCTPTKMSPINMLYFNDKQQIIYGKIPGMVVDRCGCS

[4] = biological target: T2, GDNF; assay: Octet BLI, IgG on tip, avid
[5] = biological target: T3, Human Activin B; assay: Octet BLI, IgG on tip, avid
[6] = biological target: T4, GDF10; assay: Octet BLI, IgG on tip, avid
[7] = biological target: T5, Human BMP10; assay: Octet BLI, IgG on tip, avid
[8] = biological target: T6, GDF15; assay: cell-based or functional assay
[9] = biological target: T7, Mouse GDF15 Fc; assay: Octet BLI, IgG on AHC tip, avid
Description: (§1) Briefly, ForteBio affinity measurements were performed by loading IgGs on-line onto AHC sensors. Sensors were equilibrated off-line in assay buffer for 30 min and then monitored on-line for 60 seconds for baseline establishment. Sensors with loaded IgGs were exposed to 100 nM antigen for 3 minutes, and afterwards were transferred to assay buffer for 3 min for off-rate measurement. All kinetics were analyzed using the 1:1 binding model.

[10] = biological target: T8, Cyno GDF15 Fc; assay: Octet BLI, IgG on AHC tip, avid
Description: as §1

[11] = biological target: T9, Rat GDF-15 Fc; assay: Octet BLI, IgG on AHC tip, avid
Description: as §1

[12] = biological target: T1, Human BMP9; assay: Octet BLI, IgG on tip, avid
[13] = biological target: T10, Human Activin A Fc; assay: Octet BLI, IgG on tip, avid

| Binder | binding result [1] | binding result [2] | binding result [3] | binding result [4] | Kd [5] [nM] | binding result [6] | binding result [7] | GDF15 - GFRAL RET pERK IC50 (pM) [8] [pM] | GDF15 - GFRAL-RET Luciferase IC50 (pM) [8] [pM] | Kd [9] [nM] | Kd [10] [nM] | Kd [11] [nM] | binding result [5] | binding result [12] | binding result [13] | Kd [4] [nM] | Kd [6] [nM] |
| --- | --- | --- | --- | --- | --- | --- | --- | --- | --- | --- | --- | --- | --- | --- | --- | --- | --- |
| B1 | binds | no binding (tested: 100 nM) | no binding (tested: 100 nM) | no binding (tested: 100 nM) | 172 | no binding (tested: 100 nM) | no binding (tested: 100 nM) |  |  |  |  |  |  |  |  |  |  |
| B2 | binds | no binding (tested: 100 nM) | no binding (tested: 100 nM) | no binding (tested: 100 nM) | 188 | no binding (tested: 100 nM) |  |  |  |  |  |  |  |  |  |  |  |
| B3 |  | no binding (tested: 100 nM) | no binding (tested: 100 nM) | no binding (tested: 100 nM) |  | no binding (tested: 100 nM) | no binding (tested: 100 nM) | 35 | 190 | 0.194 | 0.178 | 0.451 | no binding (tested: 100 nM) | no binding (tested: 100 nM) | no binding (tested: 100 nM) |  |  |
| B4 |  | no binding (tested: 100 nM) | no binding (tested: 100 nM) |  |  | no binding (tested: 100 nM) | no binding (tested: 100 nM) | 34.5 | 79.3 | 0.152 | 3.04 | 1.18 | no binding (tested: 100 nM) | no binding (tested: 100 nM) | no binding (tested: 100 nM) |  |  |
| B5 |  | no binding (tested: 100 nM) | no binding (tested: 100 nM) |  |  | no binding (tested: 100 nM) | no binding (tested: 100 nM) | 13.5 | 274 |  |  |  | no binding (tested: 100 nM) | no binding (tested: 100 nM) | no binding (tested: 100 nM) | 229 |  |
| B6 |  | no binding (tested: 100 nM) | no binding (tested: 100 nM) |  |  | no binding (tested: 100 nM) | no binding (tested: 100 nM) | 88.7 |  |  |  |  | no binding (tested: 100 nM) | no binding (tested: 100 nM) | no binding (tested: 100 nM) | 31.4 |  |
| B7 |  | no binding (tested: 100 nM) | no binding (tested: 100 nM) |  |  | no binding (tested: 100 nM) | no binding (tested: 100 nM) | 99.7 |  | 0.219 | 0.219 | 0.358 | no binding (tested: 100 nM) | no binding (tested: 100 nM) | no binding (tested: 100 nM) | 2.56 |  |
| B8 |  | no binding (tested: 100 nM) | no binding (tested: 100 nM) | no binding (tested: 100 nM) |  |  | no binding (tested: 100 nM) |  | 150 |  |  |  | no binding (tested: 100 nM) | no binding (tested: 100 nM) | no binding (tested: 100 nM) |  | 26.7 |

— patent publication US20250019427A1 (BYOMASS, published 2025)
